US20170128596A1, “Peptide-Based Compounds and Their Uses for Tumor Imaging and Targeting” (Klinikum rechts der lsar der Technischen Universitaet …, priority 2014, published 2017)
One block for each compound: values may come before it.

Experiments:
[1] = Ex vivo biodistribution in CT26 tumor-bearing mice by NIRF quantification; parameters: species or system mouse; details: i.v.
Experimental: Regression equation of linear regression analysis (lower panel). The concentration of TPP[Cy5.5] in organs was calculated using this regression equation. Scale bar, 5 mm.
For biodistribution tumor-bearing mice were sacrificed 12, 24 or 48 h after i.v. injection of TPP[Cy5.5]. Fluorescent signal intensities of 0.25 cm^3 tissue cubes, taken from the tumor, spleen, pancreas, liver, lung, duodenum, kidney, heart, and 0.25 ml of peripheral blood were measured as described above. Agarose-gel cubes with standardized concentrations were used to calculate the probe concentrations in the investigated tissue samples.
After the mice had been sacrificed, the contents of TPP[Cy5.5] in the tumors and organs (spleen, pancreas, liver, lung, duodenum, kidney, heart and blood) were assessed. […] Fluorescence intensities of the tissues were measured as described in the imaging procedures chapter. Quantification of the Cy5.5 contents in the defined tissue volumes was calculated using fluorescence signal intensities of standards with defined concentrations. […] Fluorescence signal intensity was measured using the same instrument settings than for the tissue specimen (FIG. 10, upper panel). […] Linear regression equation of the standards was calculated with Microsoft Excel 2007 (FIG. 10, lower panel). The concentration of TPP[Cy5.5] in organs was calculated using the regression equation.

[2] = Toxicity testing in healthy and tumor-bearing BALB/c mice
Experimental: Concentrations up to 500 μg of TPP per mouse were tested in tumor-bearing mice (s.c. tumors, size 0.4 cm^3). The health status and the general behavior of mice were inspected. Animals were sacrificed on day 5 and the heart, liver, spleen, lung and kidneys examined for pathological changes using standard histological techniques.

[3] = test system: MCF7, MDA-MB-231, T47D cells; assay: Peptide uptake into human breast cancer cell lines by confocal microscopy; type: cell-based; details: 30 min at 37° C.
Experimental: Human breast cancer cell lines (MCF7, MDA-MB-231, T47D) expressing different levels of membrane Hsp70 were incubated with CF-TPP or a scrambled peptide for 30 min at 37° C. and internalization of the peptides was imaged by confocal microscopy.

[4] = target: membrane-bound Heat shock protein 70 (Hsp70) on human tumor cells (human) (UniProt P0DMV8); assay: flow cytometry, single cell suspension of in vivo-grown MIA PaCa-2 human pancreas tumor
membrane-bound Heat shock protein 70 (Hsp70) on human tumor cells (human), sequence (P0DMV8 2-641): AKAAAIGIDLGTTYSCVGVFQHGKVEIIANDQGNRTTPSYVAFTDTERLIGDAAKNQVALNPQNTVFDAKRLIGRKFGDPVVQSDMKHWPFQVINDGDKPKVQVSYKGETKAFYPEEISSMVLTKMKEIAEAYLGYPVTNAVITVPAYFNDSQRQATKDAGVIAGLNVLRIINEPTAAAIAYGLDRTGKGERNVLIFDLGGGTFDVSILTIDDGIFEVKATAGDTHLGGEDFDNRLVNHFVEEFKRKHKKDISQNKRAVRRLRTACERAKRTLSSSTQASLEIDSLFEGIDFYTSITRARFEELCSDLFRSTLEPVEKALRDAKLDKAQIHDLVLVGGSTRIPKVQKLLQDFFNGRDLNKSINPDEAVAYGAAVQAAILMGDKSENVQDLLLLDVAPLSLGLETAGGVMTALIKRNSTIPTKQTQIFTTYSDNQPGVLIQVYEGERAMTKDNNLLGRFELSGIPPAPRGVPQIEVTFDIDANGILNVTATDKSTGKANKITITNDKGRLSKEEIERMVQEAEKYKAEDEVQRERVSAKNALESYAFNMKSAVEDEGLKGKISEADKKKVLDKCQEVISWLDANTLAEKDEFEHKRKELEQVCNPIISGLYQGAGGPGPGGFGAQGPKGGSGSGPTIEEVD

[5] = target: membrane-bound Heat shock protein 70 (Hsp70) on human tumor cells (human) (UniProt P0DMV8); assay: flow cytometry, single cell suspension of in vivo-grown T-47D human mammary tumor
[6] = target: membrane-bound Heat shock protein 70 (Hsp70) on human tumor cells (human) (UniProt P0DMV8); assay: flow cytometry, single cell suspension of in vivo-grown CX-2 human colon tumor
[7] = target: membrane-bound Heat shock protein 70 (Hsp70) on human tumor cells (human) (UniProt P0DMV8); assay: flow cytometry, single cell suspension of in vivo-grown HeLa human cervix tumor
[8] = target: membrane-bound Heat shock protein 70 (Hsp70) on human tumor cells (human) (UniProt P0DMV8); assay: flow cytometry, single cell suspension of in vivo-grown Cal-33 human head & neck tumor
[9] = target: membrane-bound Heat shock protein 70 (Hsp70) on human tumor cells (human) (UniProt P0DMV8); assay: flow cytometry, single cell suspension of in vivo-grown A549 human lung tumor
[10] = target: membrane-bound Heat shock protein 70 (Hsp70) on murine tumor cells (mouse) (UniProt Q61696); assay: flow cytometry, single cell suspension of in vivo-grown 4T1 murine mammary tumor
membrane-bound Heat shock protein 70 (Hsp70) on murine tumor cells (mouse), sequence (Q61696 2-641): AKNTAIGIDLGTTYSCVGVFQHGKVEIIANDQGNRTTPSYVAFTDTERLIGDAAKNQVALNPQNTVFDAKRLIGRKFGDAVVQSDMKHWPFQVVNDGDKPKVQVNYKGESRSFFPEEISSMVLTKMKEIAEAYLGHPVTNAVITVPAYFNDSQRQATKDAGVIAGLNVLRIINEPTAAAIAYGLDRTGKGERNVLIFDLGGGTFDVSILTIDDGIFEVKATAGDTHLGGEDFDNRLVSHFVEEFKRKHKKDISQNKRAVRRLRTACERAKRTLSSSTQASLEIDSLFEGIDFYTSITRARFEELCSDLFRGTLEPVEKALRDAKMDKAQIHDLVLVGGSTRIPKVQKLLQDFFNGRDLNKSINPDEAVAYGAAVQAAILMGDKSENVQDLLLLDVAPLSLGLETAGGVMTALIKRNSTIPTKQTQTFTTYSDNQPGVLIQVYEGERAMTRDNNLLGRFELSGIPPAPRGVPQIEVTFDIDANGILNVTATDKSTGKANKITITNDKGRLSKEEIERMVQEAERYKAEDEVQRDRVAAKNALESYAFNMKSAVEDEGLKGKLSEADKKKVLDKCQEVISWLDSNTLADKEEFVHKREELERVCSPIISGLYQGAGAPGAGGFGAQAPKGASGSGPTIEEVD

[11] = target: membrane-bound Heat shock protein 70 (Hsp70) on human tumor cells (human) (UniProt P0DMV8); assay: flow cytometry, single cell suspension of in vivo-grown FaDu human head & neck tumor
[12] = target: membrane-bound Heat shock protein 70 (Hsp70) on human tumor cells (human) (UniProt P0DMV8); assay: flow cytometry, single cell suspension of in vivo-grown MDA-MB231 human mammary tumor
[13] = target: membrane-bound Heat shock protein 70 (Hsp70) on human tumor cells (human) (UniProt P0DMV8); assay: flow cytometry, single cell suspension of in vivo-grown Panc-1 human pancreas tumor
[14] = target: membrane-bound Heat shock protein 70 (Hsp70) on human tumor cells (human) (UniProt P0DMV8); assay: flow cytometry, single cell suspension of in vivo-grown H-1339 human lung tumor
[15] = target: membrane-bound Heat shock protein 70 (Hsp70) on murine tumor cells (mouse) (UniProt Q61696); assay: flow cytometry, single cell suspension of CAC murine colon tumor
[16] = target: membrane-bound Heat shock protein 70 (Hsp70) on human tumor cells (human) (UniProt P0DMV8); assay: flow cytometry, single cell suspension of in vivo-grown MCF-7 human mammary tumor
[17] = target: membrane-bound Heat shock protein 70 (Hsp70) on murine tumor cells (mouse) (UniProt Q61696); assay: flow cytometry, single cell suspension of PDAC murine pancreas tumor
[18] = target: membrane-bound Heat shock protein 70 (Hsp70) on human tumor cells (human) (UniProt P0DMV8); assay: flow cytometry, single cell suspension of in vivo-grown COLO357 human pancreas tumor
[19] = target: membrane-bound Heat shock protein 70 (Hsp70) on murine tumor cells (mouse) (UniProt Q61696); assay: flow cytometry, single cell suspension of in vivo-grown CT26 murine colon tumor
[20] = target: membrane-bound Heat shock protein 70 (Hsp70) on human tumor cells (human) (UniProt P0DMV8); assay: flow cytometry, single cell suspension of in vivo-grown HCT-116 human colon tumor

Compound: CC(C)C[C@H](NC(=O)[C@H](CC(C)C)NC(=O)[C@H](CC(N)=O)NC(=O)[C@H](CC(N)=O)NC(=O)[C@H](CC(=O)O)NC(=O)[C@H](CCCCN)NC(=O)[C@@H](N)[C@@H](C)O)C(=O)NCC(=O)N[C@@H](CCCNC(=N)N)C(=O)N[C@@H](Cc1ccccc1)C(=O)N[C@@H](CCC(=O)O)C(=O)N[C@@H](CC(C)C)C(=O)N[C@@H](CO)C(=O)NCC(=O)O [TPP, TKDNNLLGRFELSG]
- route of clearance [1]: cleared from the body by renal excretion
- loss of weight or change in mobility ([2]; BALB/c mice, i.v. 500 to 1050 μg): Nor did any animal exhibit any loss of weight or change in mobility
- gross monitoring for toxic reactions (skin ulcerations, toxic death) ([2]; BALB/c mice, i.v. 500 to 1050 μg (25 to 50 μg/g)): did not show any toxic reactions
- histological examination of heart, liver, spleen, lung and kidney ([2]; day 5 after injection): no pathological changes
- side effects in tumor-bearing mice ([2]; up to 500 μg per mouse): did not exert any side effects

Compound: NGLTLKNDFSRLEG (scrambled control peptide)
- internalization into tumor cells [3]: not internalized

- % membrane-positive cells [4]: 58.5%
- % membrane-positive cells [5]: 48%
- % membrane-positive cells [6]: 56.6%
- % membrane-positive cells [7]: 55%
- % membrane-positive cells [8]: 68.1%
- % membrane-positive cells [9]: 76.3%
- % membrane-positive cells [10]: 56.3%
- % membrane-positive cells [11]: 59%
- % membrane-positive cells [12]: 63.3%
- % membrane-positive cells [13]: 46%
- % membrane-positive cells [14]: 60%
- % membrane-positive cells [15]: 51.2%
- % membrane-positive cells [16]: 58%
- % membrane-positive cells [17]: 50%
- % membrane-positive cells [18]: 57.8%
- % membrane-positive cells [19]: 55.5%
- % membrane-positive cells [20]: 63.3%
Compound: cmHsp70.1 monoclonal antibody (FITC-conjugated for flow cytometry)
